# ± gives the standard deviation of the averaged measurements.
# Assays:
# MCF7 = test: percentage of EdU-negative (G0-arrested) nuclei per well, 72 h; higher = more G0 arrest; conditions: reference: sequence is the full UniProt precursor, the tested protein was the secreted form or ectodomain
# hTERT-HMEC = test: as above; conditions: reference: sequence is the full UniProt precursor, the tested protein was the secreted form or ectodomain
# [1] = protein concentration 0.0166175 µM
# [2] = protein concentration 0.166175 µM
# [3] = protein concentration 0.015525 µM
# [4] = protein concentration 0.15525 µM
# [5] = protein concentration 0.0225 µM
# [6] = protein concentration 0.0257143 µM
# [7] = protein concentration 0.257143 µM
# [8] = protein concentration 0.0293325 µM
# [9] = protein concentration 0.293325 µM
# [10] = protein concentration 0.01525 µM
# [11] = protein concentration 0.1525 µM
# 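Note: secreted proteins added to cultured cells, EdU pulse at the end, nuclei found by Hoechst imaging, EdU status from nuclear versus surrounding ring intensity ratio, PBS as neutral control.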
Sequence,percentage of EdU-negative (MCF7; [5]) [%],percentage of EdU-negative (MCF7; protein concentration 0.225 µM) [%],percentage of EdU-negative (hTERT-HMEC; [5]) [%],percentage of EdU-negative (hTERT-HMEC; protein concentration 0.225 µM) [%],other results
MERAAPSRRVPLPLLLLGGLALLAAGVDADVLLEACCADGHRMATHQKDCSLPYATESKECRMVQEQCCHSQLEELHCATGISLANEQDRCATPHGDNASLEATFVKRCCHCCLLGRAAQAQGQSCEYSLMVGYQCGQVFQACCVKSQETGDLDVGGLQETDKIIEVEEEQEDPYLNDRCRGGGPCKQQCRDTGDEVVCSCFVGYQLLSDGVSCEDVNECITGSHSCRLGESCINTVGSFRCQRDSSCGTGYELTEDNSCKDIDECESGIHNCLPDFICQNTLGSFRCRPKLQCKSGFIQDALGNCIDINECLSISAPCPIGHTCINTEGSYTCQKNVPNCGRGYHLNEEGTRCVDVDECAPPAEPCGKGHRCVNSPGSFRCECKTGYYFDGISRMCVDVNECQRYPGRLCGHKCENTLGSYLCSCSVGFRLSVDGRSCEDINECSSSPCSQECANVYGSYQCYCRRGYQLSDVDGVTCEDIDECALPTGGHICSYRCINIPGSFQCSCPSSGYRLAPNGRNCQDIDECVTGIHNCSINETCFNIQGGFRCLAFECPENYRRSAATLQQEKTDTVRCIKSCRPNDVTCVFDPVHTISHTVISLPTFREFTRPEEIIFLRAITPPHPASQANIIFDITEGNLRDSFDIIKRYMDGMTVGVVRQVRPIVGPFHAVLKLEMNYVVGGVVSHRNVVNVHIFVSEYWF,–,–,–,–,percentage of EdU-negative (MCF7; [1]): 27.1 ± 0.61%; percentage of EdU-negative (MCF7; [2]): 26.7 ± 1.6%; percentage of EdU-negative (hTERT-HMEC; [1]): 3.95 ± 0.058%; percentage of EdU-negative (hTERT-HMEC; [2]): 5.63 ± 0.19%
MRPQELPRLAFPLLLLLLLLLPPPPCPAHSATRFDPTWESLDARQLPAWFDQAKFGIFIHWGVFSVPSFGSEWFWWYWQKEKIPKYVEFMKDNYPPSFKYEDFGPLFTAKFFNANQWADIFQASGAKYIVLTSKHHEGFTLWGSEYSWNWNAIDEGPKRDIVKELEVAIRNRTDLRFGLYYSLFEWFHPLFLEDESSSFHKRQFPVSKTLPELYELVNNYQPEVLWSDGDGGAPDQYWNSTGFLAWLYNESPVRGTVVTNDRWGAGSICKHGGFYTCSDRYNPGHLLPHKWENCMTIDKLSWGYRREAGISDYLTIEELVKQLVETVSCGGNLLMNIGPTLDGTISVVFEERLRQMGSWLKVNGEAIYETHTWRSQNDTVTPDVWYTSKPKEKLVYAIFLKWPTSGQLFLGHPKAILGATEVKLLGHGQPLNWISLEQNGIMVELPQLTIHQMPCKWGWALALTNVI [Q9BTY2],–,–,–,–,percentage of EdU-negative (MCF7; [3]): 22.7 ± 0.71%; percentage of EdU-negative (MCF7; [4]): 27.2 ± 2.1%; percentage of EdU-negative (hTERT-HMEC; [3]): 4.67 ± 0.2%; percentage of EdU-negative (hTERT-HMEC; [4]): 5.55 ± 0.98%
MRPPACWWLLAPPALLALLTCSLAFGLASEDTKKEVKQSQDLEKSGISRKNDIDLKGIVFVIQSQSNSFHAKRAEQLKKSILKQAADLTQELPSVLLLHQLAKQEGAWTILPLLPHFSVTYSRNSSWIFFCEEETRIQIPKLLETLRRYDPSKEWFLGKALHDEEATIIHHYAFSENPTVFKYPDFAAGWALSIPLVNKLTKRLKSESLKSDFTIDLKHEIALYIWDKGGGPPLTPVPEFCTNDVDFYCATTFHSFLPLCRKPVKKKDIFVAVKTCKKFHGDRIPIVKQTWESQASLIEYYSDYTENSIPTVDLGIPNTDRGHCGKTFAILERFLNRSQDKTAWLVIVDDDTLISISRLQHLLSCYDSGEPVFLGERYGYGLGTGGYSYITGGGGMVFSREAVRRLLASKCRCYSNDAPDDMVLGMCFSGLGIPVTHSPLFHQARPVDYPKDYLSHQVPISFHKHWNIDPVKVYFTWLAPSDEDKARQETQKGFREEL [Q6Y288],23.9 ± 0.6,28.2 ± 2.5,4.96 ± 0.058,9.95 ± 0.45,–
MALRRSMGRPGLPPLPLPPPPRLGLLLAALASLLLPESAAAGLKLMGAPVKLTVSQGQPVKLNCSVEGMEEPDIQWVKDGAVVQNLDQLYIPVSEQHWIGFLSLKSVERSDAGRYWCQVEDGGETEISQPVWLTVEGVPFFTVEPKDLAVPPNAPFQLSCEAVGPPEPVTIVWWRGTTKIGGPAPSPSVLNVTGVTQSTMFSCEAHNLKGLASSRTATVHLQALPAAPFNITVTKLSSSNASVAWMPGADGRALLQSCTVQVTQAPGGWEVLAVVVPVPPFTCLLRDLVPATNYSLRVRCANALGPSPYADWVPFQTKGLAPASAPQNLHAIRTDSGLILEWEEVIPEAPLEGPLGPYKLSWVQDNGTQDELTVEGTRANLTGWDPQKDLIVRVCVSNAVGCGPWSQPLVVSSHDRAGQQGPPHSRTSWVPVVLGVLTALVTAAALALILLRKRRKETRFGQAFDSVMARGEPAVHFRAARSFNRERPERIEATLDSLGISDELKEKLEDVLIPEQQFTLGRMLGKGEFGSVREAQLKQEDGSFVKVAVKMLKADIIASSDIEEFLREAACMKEFDHPHVAKLVGVSLRSRAKGRLPIPMVILPFMKHGDLHAFLLASRIGENPFNLPLQTLIRFMVDIACGMEYLSSRNFIHRDLAARNCMLAEDMTVCVADFGLSRKIYSGDYYRQGCASKLPVKWLALESLADNLYTVQSDVWAFGVTMWEIMTRGQTPYAGIENAEIYNYLIGGNRLKQPPECMEDVYDLMYQCWSADPKQRPSFTCLRMELENILGQLSVLSASQDPLYINIERAEEPTAGGSLELPGRDQPYSGAGDGSGMGAVGGTPSDCRYILTPGGLAEQPGQAEHQPESPLNETQRLLLLQQGLLPHSSC,–,–,–,–,percentage of EdU-negative (MCF7; [6]): 25.83 ± 0.093%; percentage of EdU-negative (MCF7; [7]): 27.3 ± 1.4%; percentage of EdU-negative (hTERT-HMEC; [6]): 3.99 ± 0.11%; percentage of EdU-negative (hTERT-HMEC; [7]): 5.87 ± 0.091%
MKISILLMFLWGLSCALPVTRYQNNESEDSEEWKGHLAQAPTPPLESSESSEGSKVSSEEQANEDPSDSTQSEEGLGSDDHQYIYRLAGGFSRSTGKGGDDKDDDEDDSGDDTFGDDDSGPGPKDRQEGGNSRLGSDEDSDDTIQASEESAPQGQDSAQDTTSESRELDNEDRVDSKPEGGDSTQESESEEHWVGGGSDGESSHGDGSELDDEGMQSDDPESIRSERGNSRMNSAGMKSKESGENSEQANTQDSGGSQLLEHPSRKIFRKSRISEEDDRSELDDNNTMEEVKSDSTENSNSRDTGLSQPRRDSKGDSQEDSKENLSQEESQNVDGPSSESSQEANLSSQENSSESQEEVVSESRGDNPDPTTSYVEDQEDSDSSEEDSSHTLSHSKSESREEQADSESSESLNFSEESPESPEDENSSSQEGLQSHSSSAESQSEESHSEEDDSDSQDSSRSKEDSNSTESKSSSEEDGQLKNIEIESRKLTVDAYHNKPIGDQDDNDCQDGY,–,–,–,–,percentage of EdU-negative (MCF7; protein concentration 0.021 µM): 24.6 ± 0.6%; percentage of EdU-negative (MCF7; protein concentration 0.21 µM): 26.3 ± 0.99%; percentage of EdU-negative (hTERT-HMEC; protein concentration 0.021 µM): 4.74 ± 0.51%; percentage of EdU-negative (hTERT-HMEC; protein concentration 0.21 µM): 14.1 ± 2.1%
MALTAHPSCLLALLVAGLAQGIRGPLRAQDLGPQPLELKEAFKLFQIQFNRSYLSPEEHAHRLDIFAHNLAQAQRLQEEDLGTAEFGVTPFSDLTEEEFGQLYGYRRAAGGVPSMGREIRSEEPEESVPFSCDWRKVASAISPIKDQKNCNCCWAMAAAGNIETLWRISFWDFVDVSVQELLDCGRCGDGCHGGFVWDAFITVLNNSGLASEKDYPFQGKVRAHRCHPKKYQKVAWIQDFIMLQNNEHRIAQYLATYGPITVTINMKPLQLYRKGVIKATPTTCDPQLVDHSVLLVGFGSVKSEEGIWAETVSSQSQPQPPHPTPYWILKNSWGAQWGEKGYFRLHRGSNTCGITKFPLTARVQKPDMKPRVSCPP,23.2 ± 3.5,32.1 ± 4.7,4.63 ± 1.3,48.2 ± 4,–
MSFPCKFVASFLLIFNVSSKGAVSKEITNALETWGALGQDINLDIPSFQMSDDIDDIKWEKTSDKKKIAQFRKEKETFKEKDTYKLFKNGTLKIKHLKTDDQDIYKVSIYDTKGKNVLEKIFDLKIQERVSKPKISWTCINTTLTCEVMNGTDPELNLYQDGKHLKLSQRVITHKWTTSLSAKFKCTAGNKVSKESSVEPVSCPEKGLDIYLIIGICGGGSLLMVFVALLVFYITKRKKQRSRRNDEELETRAHRVATEERGRKPHQIPASTPQNPATSQHPPPPPGHRSQAPSHRPPPPGHRVQHQPQKRPPAPSGTQVHQQKGPPLPRPRVQPKPPHGAAENSLSPSSN,24.6 ± 0.84,26.8 ± 0.55,5.27 ± 1.3,5.92 ± 0.1,–
MPVMRLFPCFLQLLAGLALPAVPPQQWALSAGNGSSEVEVVPFQEVWGRSYCRALERLVDVVSEYPSEVEHMFSPSCVSLLRCTGCCGDENLHCVPVETANVTMQLLKIRSGDRPSYVELTFSQHVRCECRHSPGRQSPDMPGDFRADAPSFLPPRRSLPMLFRMEWGCALTGSQSAVWPSSPVPEEIPRMHPGRNGKKQQRKPLREKMKPERCGDAVPRR,–,–,–,–,percentage of EdU-negative (MCF7; [8]): 24.4 ± 0.58%; percentage of EdU-negative (MCF7; [9]): 25.4 ± 0.6%; percentage of EdU-negative (hTERT-HMEC; [8]): 4.772 ± 0.0079%; percentage of EdU-negative (hTERT-HMEC; [9]): 5.02 ± 0.86%
MRLLVLLWGCLLLPGYEALEGPEEISGFEGDTVSLQCTYREELRDHRKYWCRKGGILFSRCSGTIYAEEEGQETMKGRVSIRDSRQELSLIVTLWNLTLQDAGEYWCGVEKRGPDESLLISLFVFPGPCCPPSPSPTFQPLATTRLQPKAKAQQTQPPGLTSPGLYPAATTAKQGKTGAEAPPLPGTSQYGHERTSQYTGTSPHPATSPPAGSSRPPMQLDSTSAEDTSPALSSGSSKPRVSIPMVRILAPVLVLLSLLSAAGLIAFCSHLLLWRKEAQQATETQRNEKFCLSRLTAEEKEAPSQAPEGDVISMPPLHTSEEELGFSKFVSA [K7EL06],26 ± 1.2,24.7 ± 3.6,5.2 ± 0.081,5.26 ± 0.58,–
MPSSTAMAVGALSSSLLVTCCLMVALCSPSIPLEKLAQAPEQPGQEKREHASRDGPGRVNELGRPARDEGGSGRDWKSKSGRGLAGREPWSKLKQAWVSQGGGAKAGDLQVRPRGDTPQAEALAAAAQDAIGPELAPTPEPPEEYVYPDYRGKGCVDESGFVYAIGEKFAPGPSACPCLCTEEGPLCAQPECPRLHPRCIHVDTSQCCPQCKERKNYCEFRGKTYQTLEEFVVSPCERCRCEANGEVLCTVSACPQTECVDPVYEPDQCCPICKNGPNCFAETAVIPAGREVKTDECTICHCTYEEGTWRIERQAMCTRHECRQM [Q2TAL6],–,–,–,–,percentage of EdU-negative (MCF7; [10]): 22.8 ± 3.1%; percentage of EdU-negative (MCF7; [11]): 25.17 ± 0.21%; percentage of EdU-negative (hTERT-HMEC; [10]): 5.49 ± 1.1%; percentage of EdU-negative (hTERT-HMEC; [11]): 7.17 ± 0.096%
MPRCRWLSLILLTIPLALVARKDPKKNETGVLRKLKPVNASNANVKQCLWFAMQEYNKESEDKYVFLVVKTLQAQLQVTNLLEYLIDVEIARSDCRKPLSTNEICAIQENSKLKRKLSCSFLVGALPWNGEFTVMEKKCEDA,27.2 ± 1.2,25.6 ± 1.6,5.21 ± 1.2,4.56 ± 0.34,–
MAQHHLWILLLCLQTWPEAAGKDSEIFTVNGILGESVTFPVNIQEPRQVKIIAWTSKTSVAYVTPGDSETAPVVTVTHRNYYERIHALGPNYNLVISDLRMEDAGDYKADINTQADPYTTTKRYNLQIYRRLGKPKITQSLMASVNSTCNVTLTCSVEKEEKNVTYNWSPLGEEGNVLQIFQTPEDQELTYTCTAQNPVSNNSDSISARQLCADIAMGFRTHHTGLLSVLAMFFLLVLILSSVFLFRLFKRRQGRIFPEGSCLNTFTKNPYAASKKTIYTYIMASRNTQPAESRIYDEILQSKVLPSKEEPVNTVYSEVQFADKMGKASTQDSKPPGTSSYEIVI [Q9UIB8],27.3 ± 3,26.8 ± 1.5,4.54 ± 0.35,5.92 ± 0.51,–
